Results: article PMC2801614, “Promoter Recognition by a Complex of Spx and the C-Terminal Domain of the RNA Polymerase α Subunit” (PLoS ONE, 2010)
Values belong to the binder of their own block, whether it stands above or below them.

Columns and labels:
[1] = target: T1, wild-type Spx protein (Bacillus subtilis, UniProt O31602 1-131); assay: native gel or EMSA; supershift of the αCTD-trxB promoter (-56 to -21) complex; 5 µM Spx and 5 µM αCTD preincubated 10 min at room temperature in 20 mM Tris-HCl pH 7.8, 50 mM NaCl, 5 mM MgCl2, 10% glycerol, then 32P-labelled probe 15 min; 6% native polyacrylamide gel in TGE buffer; no DTT; conditions: both partners purified
T1 construct: Spx of Bacillus subtilis; Made with the self-cleavable intein system (New England Biolabs); also called oxidized Spx; source: E. coli ER2566 (pMMN470), purified (chitin column, High S column)
T1 sequence (looked up): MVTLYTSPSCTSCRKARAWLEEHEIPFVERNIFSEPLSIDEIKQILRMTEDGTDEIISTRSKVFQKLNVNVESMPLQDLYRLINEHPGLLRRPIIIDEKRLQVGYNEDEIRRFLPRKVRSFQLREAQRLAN

[2] = target: T2, Spx wild-type (Bacillus subtilis, UniProt O31602 1-131); assay: EMSA; 5 uM Spx alone; EMSA: 20 mM Tris-HCl pH 7.8, 50 mM NaCl, 5 mM MgCl2, 10% glycerol, 5 uM each protein unless stated, room temperature (10 min preincubation, 15 min with probe); conditions: protein: recombinant; tags: tag-free after self-cleavable intein/chitin purification; label: 32P-dA at 3' end of the S42 strand (Klenow fill-in); blunt after Klenow fill-in of S42 (35-mer)
T2 sequence: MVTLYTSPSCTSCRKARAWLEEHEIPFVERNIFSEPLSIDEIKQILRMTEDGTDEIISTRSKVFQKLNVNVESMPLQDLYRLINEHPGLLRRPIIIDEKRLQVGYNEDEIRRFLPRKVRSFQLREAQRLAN

[3] = target: T3, alphaCTD (C-terminal domain of RNA polymerase alpha subunit);SpxR60E (Bacillus subtilis;Bacillus subtilis, UniProt P20429;O31602 225-314;1-131, |R60E); assay: EMSA; 5 uM each; SpxR60E also prevents the alphaCTD-DNA complex; EMSA: 20 mM Tris-HCl pH 7.8, 50 mM NaCl, 5 mM MgCl2, 10% glycerol, 5 uM each protein unless stated, room temperature (10 min preincubation, 15 min with probe); conditions: protein: recombinant;recombinant; tags: tag-free after self-cleavable intein/chitin purification;intein (pTYB4), cleaved; cloned via NcoI/SmaI; copies: 1;1; label: 32P-dA at 3' end of the S42 strand (Klenow fill-in); blunt after Klenow fill-in of S42 (35-mer)
T3 sequence 1: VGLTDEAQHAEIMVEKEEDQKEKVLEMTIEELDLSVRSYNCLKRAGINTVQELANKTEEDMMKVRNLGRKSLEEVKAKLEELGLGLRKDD
T3 sequence 2: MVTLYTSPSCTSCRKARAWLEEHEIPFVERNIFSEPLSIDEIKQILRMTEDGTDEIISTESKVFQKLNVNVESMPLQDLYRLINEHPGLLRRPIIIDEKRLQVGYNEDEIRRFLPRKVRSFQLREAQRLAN

[4] = target: T4, alphaCTD (C-terminal domain of RNA polymerase alpha subunit) (Bacillus subtilis, UniProt P20429 225-314); assay: EMSA; 5 uM alphaCTD; EMSA: 20 mM Tris-HCl pH 7.8, 50 mM NaCl, 5 mM MgCl2, 10% glycerol, 5 uM each protein unless stated, room temperature (10 min preincubation, 15 min with probe); conditions: protein: recombinant; tags: tag-free after self-cleavable intein/chitin purification; label: 32P-dA at 3' end of the S42 strand (Klenow fill-in); blunt after Klenow fill-in of S42 (35-mer)
T4 sequence: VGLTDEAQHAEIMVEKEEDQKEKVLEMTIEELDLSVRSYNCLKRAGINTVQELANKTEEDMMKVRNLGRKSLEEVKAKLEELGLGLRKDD

[5] = target: T4, alphaCTD (C-terminal domain of RNA …); assay: EMSA; EMSA: 20 mM Tris-HCl pH 7.8, 50 mM NaCl, 5 mM MgCl2, 10% glycerol, 5 uM each protein unless stated, room temperature (10 min preincubation, 15 min with probe); conditions: protein: recombinant; tags: tag-free after self-cleavable intein/chitin purification; label: 32P-dA at 3' end of the S44 strand (Klenow fill-in); blunt after Klenow fill-in of S44 (35-mer)

binding result [1]: binds
B1: αCTD (residues 225–314) (domain or fragment, Bacillus subtilis, UniProt P20429 225-314, looked up)
chain: VGLTDEAQHAEIMVEKEEDQKEKVLEMTIEELDLSVRSYNCLKRAGINTVQELANKTEEDMMKVRNLGRKSLEEVKAKLEELGLGLRKDD
notes: RNA polymerase α subunit (RpoA) of Bacillus subtilis, C-terminal domain, residues 225-314; Made with the self-cleavable intein system (New England Biolabs); also called rpoA-CTD; source: E. coli BL21/pLysS (pSN37), purified (chitin column, High Q column)

B2: trxB promoter (-56 to -21) (dsDNA)
DNA 1: TAATCGTGTTGAGCAAAAAAATAGCGTATCACCATG
DNA 2: CATGGTGATACGCTATTTTTTTGCTCAACACGATTA
binding result [2]: no binding | binding result [3]: no binding | binding result [4]: binds

B3: trxB (-56 to -21) G-44A G-33A (dsDNA)
DNA 1: TAATCGTGTTGAACAAAAAAATAACGTATCACCATG
DNA 2: CATGGTGATACGTTATTTTTTTGTTCAACACGATTA
binding result [5]: binds
